T1: LAGE3 (full-length, subunit of the recombinant GON7/LAGE3/OSGEP complex) (human, UniProt Q14657 1-143)
T1 construct: LAGE3, human, KEOPS subunit (homolog of Pcc1); full-length protein used for all structural work; no electron density for the 60 N-terminal residues; source: recombinant, co-expressed with the other KEOPS subunits, purified (size exclusion chromatography, NiIDA); details in Supplementary Methods
T1 sequence (looked up): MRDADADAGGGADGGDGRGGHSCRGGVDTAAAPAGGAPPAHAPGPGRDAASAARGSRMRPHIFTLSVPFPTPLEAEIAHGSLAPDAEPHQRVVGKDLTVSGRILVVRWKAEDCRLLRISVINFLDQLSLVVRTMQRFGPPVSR

B1: OSGEP (full-length, subunit of the recombinant GON7/LAGE3/OSGEP complex) (enzyme, human, UniProt Q9NPF4 1-335, looked up)
chain: MPAVLGFEGSANKIGVGVVRDGKVLANPRRTYVTPPGTGFLPGDTARHHRAVILDLLQEALTESGLTSQDIDCIAYTKGPGMGAPLVSVAVVARTVAQLWNKPLVGVNHCIGHIEMGRLITGATSPTVLYVSGGNTQVIAYSEHRYRIFGETIDIAVGNCLDRFARVLKISNDPSPGYNIEQMAKRGKKLVELPYTVKGMDVSFSGILSFIEDVAHRMLATGECTPEDLCFSLQETVFAMLVEITERAMAHCGSQEALIVGGVGCNVRLQEMMATMCQERGARLFATDERFCIDNGAMIAQAGWEMFRAGHRTPLSDSGVTQRYRTDEVEVTWRD
notes: OSGEP, human, catalytic subunit of the KEOPS complex (homolog of Kae1); full-length protein used for all structural work; source: recombinant, co-expressed with the other KEOPS subunits, purified (size exclusion chromatography, NiIDA); details in Supplementary Methods
B2: GON7 (full-length, subunit of the recombinant GON7/LAGE3/OSGEP complex) (natural protein, human, UniProt Q9BXV9 1-100, looked up)
chain: MELLGEYVGQEGKPQKLRVSCEAPGDGDPFQGLLSGVAQMKDMVTELFDPLVQGEVQHRVAAAPDEDLDGDDEDDAEDENNIDNRTNFDGPSAKRPKTPS
notes: GON7 (alias C14orf142), human, fifth subunit of the KEOPS complex; full-length protein used for all structural work; only residues 1-20 and 25-50 are seen in the crystal; also called C14orf142; GON7-his; source: recombinant, co-expressed with the other KEOPS subunits, purified (size exclusion chromatography, NiIDA); details in Supplementary Methods

Target: T1, LAGE3 (full-length, subunit of the …)
Experiment: SEC-SAXS; SAXS on samples eluting from an online size exclusion HPLC column; 20 mM MES pH 6.5, 200 mM NaCl, 5 mM 2-mercaptoethanol; purified recombinant GON7/LAGE3/OSGEP complex
Conditions: both partners purified

| Binder | stoichiometry N |
| --- | --- |
| B1 | 1 |
| B2 | 1 |
